Experimental data reported in patent publication US20190160181A1.

Target: Human cyclized NaPi2b peptide (human)
Experiment: ELISA on plate-coated human cyclized NaPi2b peptide, one site-specific binding fit

B1: XMT-1535 (antibody, V domains shown)
VH: QVQLVQSGAEVVKPGASVKMSCKASGYTFTGYNIHWVKQAPGQGLEWIGAIYPGNGDTSYKQKFRGRATLTADTSTSTVYMELSSLRSEDSAVYYCARGETARATFAYWGQGTLVTVSS
VL: DIQMTQSPSSLSASVGDRVTITCSASQDIGNFLNWYQQKPGKTVKVLIYYTSSLYSGVPSRFSGSGSGTDYTLTISSLQPEDFATYYCQQYSKLPLTFGQGTKLELKR
Kd: 0.536 nM
